Data as given in US6780986.

What was measured:
[1] = target: T1, GST-Z1 (GST fused to the Z1 domain of RIP60, zinc fingers 1-5)
T1 chain: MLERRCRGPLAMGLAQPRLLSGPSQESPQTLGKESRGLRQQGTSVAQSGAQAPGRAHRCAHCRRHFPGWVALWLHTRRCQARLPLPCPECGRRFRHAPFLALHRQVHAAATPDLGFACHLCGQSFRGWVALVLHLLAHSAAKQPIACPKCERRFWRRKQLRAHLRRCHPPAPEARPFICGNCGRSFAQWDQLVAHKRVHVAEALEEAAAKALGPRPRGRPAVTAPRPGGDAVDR

GST-Z2-P123 = target: T2, GST-Z2-P123
T2 chain: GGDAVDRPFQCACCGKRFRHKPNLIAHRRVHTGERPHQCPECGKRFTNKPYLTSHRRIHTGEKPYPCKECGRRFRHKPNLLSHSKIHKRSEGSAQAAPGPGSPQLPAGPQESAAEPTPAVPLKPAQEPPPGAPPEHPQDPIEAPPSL

[2] = target: T3, GST-Z2 (GST fused to the Z2 domain of RIP60, zinc fingers 6-8 plus 37 amino acids of the proline rich region)
T3 chain: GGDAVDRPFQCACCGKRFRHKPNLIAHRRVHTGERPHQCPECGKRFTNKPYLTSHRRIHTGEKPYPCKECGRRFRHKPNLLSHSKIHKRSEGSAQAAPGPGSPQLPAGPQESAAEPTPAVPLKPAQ

[3] = target: T4, GST-Z3 (GST fused to the Z3 domain of RIP60, zinc fingers 9-15)
T4 chain: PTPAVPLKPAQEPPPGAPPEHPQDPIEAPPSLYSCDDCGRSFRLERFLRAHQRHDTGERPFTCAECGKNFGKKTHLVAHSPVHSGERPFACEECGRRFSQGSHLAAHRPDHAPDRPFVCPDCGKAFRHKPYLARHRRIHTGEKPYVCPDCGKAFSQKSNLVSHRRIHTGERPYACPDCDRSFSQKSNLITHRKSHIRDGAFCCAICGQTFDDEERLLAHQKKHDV

B1: casein kinase II (CKII; New England Biolabs) (protein)
chain 1: MSGPVPSRARVYTDVNTHRPREYWDYESHVVEWGNQDDYQLVRKLGRGKYSEVFEAINITNNEKVVVKILKPVKKKKIKREIKILENLRGGPNIITLADIVKDPVSRTPALVFEHVNNTDFKQLYQTLTDYDIRFYMYEILKALDYCHSMGIMHRDVKPHNVMIDHEHRKLRLIDWGLAEFYHPGQEYNVRVASRYFKGPELLVDYQMYDYSLDMWSLGCMLASMIFRKEPFFHGHDNYDQLVRIAKVLGTEDLYDYIDKYNIELDPRFNDILGRHSRKRWERFVHSENQHLVSPEALDFLDKLLRYDHQSRLTAREAMEHPYFYTVVKDQARMGSSSMPGGSTPVSSANMMSGISSVPTPSPLGPLAGSPVIAAANPLGMPVPAAAGAQQ
chain 2: not shown
phosphorylation in vitro (32P-ATP, SDS gel, autoradiography) [1]: neither GST-Z1 nor GST-Z3 were phosphorylated to any great degree | phosphorylation in vitro (32P-ATP, SDS gel, autoradiography) (GST-Z2-P123): Both GST-Z2 and GST-Z2P123 were phosphorylated | phosphorylation in vitro (32P-ATP, SDS gel, autoradiography) [2]: Only the GST-Z2 polypeptide, which contains the casein kinase II phosphorylation domain was phosphorylated | phosphorylation in vitro with and without DNA (32P-ATP, SDS gel, autoradiography) [2]: GST-Z2 polypeptide was phosphorylated by casein kinase II in the absence of DNA. However, the extent of phosphorylation increased in the presence of the double stranded DRS oligo, the linearized plasmid pCH127 and the supercoiled pCH127 | phosphorylation in vitro (32P-ATP, SDS gel, autoradiography) [3]: neither GST-Z1 nor GST-Z3 were phosphorylated to any great degree
